Results published in patent publication US20120014950A1 (Xencor, published 2012).
Substitutions are numbered along the chain they refer to. Blank lines part the entries; values can stand above or below the binder they belong to.

How the values were obtained:
[1] = biological target: T1, human DR3-Fc fusion protein (human, UniProt Q93038 25-199); assay: BIAcore SPR; human DR3-Fc amine-coupled to CM5 chip, Fab in flow; ratio of average Kd
T1 construct: also called hDR3-Fc; not shown: Fc portion
T1 sequence: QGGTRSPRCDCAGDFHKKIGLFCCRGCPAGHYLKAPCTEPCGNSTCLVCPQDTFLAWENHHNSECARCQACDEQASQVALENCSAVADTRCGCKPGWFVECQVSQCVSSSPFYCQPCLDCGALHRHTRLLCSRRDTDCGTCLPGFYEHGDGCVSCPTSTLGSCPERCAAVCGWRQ
Procedure: (§1) Briefly, target proteins are covalently immoblilzed to the BIAcore CM5 sensor chip (Cat #BR-1000-14 (Biacore Life Sciences, Piscataway, N.J.)) via amine groups using N-ethyl-N′-(dimethylaminopropyl) carbodilimide/N-hydroxysuccinimide chemistry. Empty flow cells can be used as controls negative for target binding and for background subtraction. Six different concentrations of antibody molecules (range 0 to 50 nM) are flowed over the polypeptide-derivatized flow cells at 15 μL1/min for a total volume of 50 μl. The amount of bound protein is determined during washing of the flow cell with HBS buffer (10 mM HEPES [pH 7.4], 150 mM NaCl, 3.4 mM EDTA, and 0.005% Surfactant P20). The flow cell surface is regenerated by displacing bound protein by washing with 20 μl of 10 mM glycine-HCL (pH 2.3). For kinetic analysis, the on and off rates are determined using the kinetic evaluation program in BIAevaluation 3 software using a 1:1 binding model and the global analysis method.
(§2) In order to confirm that the humanized variant antibodies were capable of binding to the extracellular domain of DR3, the Kd values of eight humanized Fab variants were determined by BIAcore assay. In this experiment, a human DR3-Fc fusion protein was covalently immoblilzed to the BIAcore CM5 sensor chip. Empty flow cells that were negative for anti-DR3-Fab binding were used for background subtraction.

[2] = biological target: T1, human DR3-Fc fusion protein; assay: BIAcore SPR; human DR3-Fc amine-coupled to CM5 chip, Fab in flow; 1:1 model; average of n=2
Procedure: as §1, §2

[3] = biological target: T1, human DR3-Fc fusion protein; assay: BIAcore SPR; human DR3-Fc amine-coupled to CM5 chip, Fab-HSA in flow; ratio of average Kd
Procedure: as §1
(§3) Additionally, H1L2-Fab and H5L2-Fab were fused to human serum albumin (See, Example 6) and similarly tested. The Kd values of H0L0-Fab-HSA, H1L2-Fab-HSA, and H5L2-Fab-HSA were determined by BIAcore analysis as described above.

[4] = biological target: T1, human DR3-Fc fusion protein; assay: BIAcore SPR; human DR3-Fc amine-coupled to CM5 chip, Fab-HSA in flow; 1:1 model; average of n=2
Procedure: as §1, §3

[5] = biological target: T2, human DR3 receptor expressed on the cell surface (human, UniProt Q93038 25-417); assay: Flow cytometry on HEK293F cells transiently expressing human DR3. 1 ug/mL human TL1A, detected with anti-TL1A-biotin polyclonal antibody and streptavidin-PE. No competitor.
T2 construct: also called hDR3; TNFRSF25
T2 sequence: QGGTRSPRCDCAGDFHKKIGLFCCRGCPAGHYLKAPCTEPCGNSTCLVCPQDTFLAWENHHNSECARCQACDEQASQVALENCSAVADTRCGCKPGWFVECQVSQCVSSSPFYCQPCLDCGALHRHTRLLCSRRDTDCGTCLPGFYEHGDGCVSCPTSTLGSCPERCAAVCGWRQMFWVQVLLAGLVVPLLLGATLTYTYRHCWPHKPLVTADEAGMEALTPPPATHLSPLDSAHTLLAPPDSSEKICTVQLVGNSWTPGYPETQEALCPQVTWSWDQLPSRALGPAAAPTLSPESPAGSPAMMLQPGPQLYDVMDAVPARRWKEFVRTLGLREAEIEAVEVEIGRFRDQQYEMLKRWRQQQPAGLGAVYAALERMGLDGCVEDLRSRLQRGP
Procedure: FIG. 4. Flow cytometry results of 11H08 binding to hDR3-expressing HEK293F cells. HEK293F cells transiently expressing human DR3 were used to test the ability of the whole 11H08 immunoglobulin molecule to inhibit human TL1A binding to DR3 (See, Example 2). HEK293F cells were incubated with 1 μg/mL of human TL1A in the presence of either an unrelated antibody (mIgG1) as an isotype control (known not to bind TL1A or DR3) or 11H08. […] The upper panels show binding of labeled TL1A either by itself or in the presence of an unrelated antibody (mIgG1).
The anti-DR3 monoclonal antibody 11H08 was assayed for its ability to inhibit human TL1A binding to human DR3 using techniques known to those skilled in the art. Briefly, HEK293F cells transiently expressing human DR3 were incubated with 1 μg/mL of human TL1A in the presence of either an unrelated antibody (mIgG1) as an isotype control that was known not to bind TL1A or DR3, or an anti-DR3 monoclonal antibody (11H08), for 20 minutes at room temperature. Binding was detected using an anti-TL1A-biotin polyclonal antibody followed by Streptavidin PE. The ability of the anti-DR3 monoclonal antibody to inhibit binding of TL1A to DR3 was measured by flow cytometry.

B1: H4.2L2-Fab (Fab, V domains shown)
VH: QVQLVQSGSELKKPGASVKVSCKASGFTFTNYAMSWVRQAPGKRLEWVATITSGGSYIYYLDSVKGRFTISRENAKSTLYLQMNSLRTEDTALYYCARRKDGNYYYAMDYWGQGTTVTVSS
VL: DIVLTQSPSSLSASVGDRVTITCRASESVDSYGNSFIHWYQQKPGQPPKLLIYRASNLESGIPARFSGSGSRTDFTLTISSLQPEDFATYYCQQSYEDPWTFGGGTKLEIKR
Ratio of binding relative to H0L0-Fab [1]: 1.46
Kd [2]: 2.01 nM

B4: H1.1L1-Fab (Fab, V domains shown)
VH: EVQLVESGGGLVKPGGSLRLSCAASGFTFTNYAMSWVRQAPGQRLEWVSTITSGGSYIYYLDSVKGRFTISRDNAKSTLYLQMNSLRAEDTAVYYCARRKDGNYYYAMDYWGQGTTVTVSS
VL: B1 VL with S9A, S10T, A13L, V15P, D17E, V19A, I21L, T22S, Q83E, T89V
Ratio of binding relative to H0L0-Fab [1]: 1.06
Kd [2]: 1.46 nM

B7: H1L2-Fab-HSA (Fab)
heavy: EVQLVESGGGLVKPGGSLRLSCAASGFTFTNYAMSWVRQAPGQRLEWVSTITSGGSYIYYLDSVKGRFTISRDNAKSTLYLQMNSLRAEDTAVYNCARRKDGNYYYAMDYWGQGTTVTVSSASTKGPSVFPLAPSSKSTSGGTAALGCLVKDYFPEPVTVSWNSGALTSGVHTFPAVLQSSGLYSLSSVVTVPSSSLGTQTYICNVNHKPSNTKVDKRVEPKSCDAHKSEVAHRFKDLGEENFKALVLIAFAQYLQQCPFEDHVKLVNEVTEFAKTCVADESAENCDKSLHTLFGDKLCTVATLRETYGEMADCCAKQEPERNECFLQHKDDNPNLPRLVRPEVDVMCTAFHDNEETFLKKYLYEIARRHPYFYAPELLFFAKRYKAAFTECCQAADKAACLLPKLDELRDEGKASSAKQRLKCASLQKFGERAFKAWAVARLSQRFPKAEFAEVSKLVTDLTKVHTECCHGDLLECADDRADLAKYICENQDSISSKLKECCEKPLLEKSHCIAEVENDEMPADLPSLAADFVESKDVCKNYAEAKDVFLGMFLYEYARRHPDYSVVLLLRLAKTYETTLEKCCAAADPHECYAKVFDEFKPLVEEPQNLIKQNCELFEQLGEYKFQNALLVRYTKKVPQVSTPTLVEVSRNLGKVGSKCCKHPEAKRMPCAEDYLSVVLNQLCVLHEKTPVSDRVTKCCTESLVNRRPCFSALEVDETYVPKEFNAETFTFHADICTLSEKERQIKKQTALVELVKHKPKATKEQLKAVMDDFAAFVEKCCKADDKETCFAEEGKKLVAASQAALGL
light: DIVLTQSPSSLSASVGDRVTITCRASESVDSYGNSFIHWYQQKPGQPPKLLIYRASNLESGIPARFSGSGSRTDFTLTISSLQPEDFATYYCQQSYEDPWTFGGGTKLEIKRTVAAPSVFIFPPSDEQLKSGTASVVCLLNNFYPREAKVQWKVDNALQSGNSQESVTEQDSKDSTYSLSSTLTLSKADYEKHKVYACEVTHQGLSSPVTKSFNRGEC
notes: also called AB13350-C1
Ratio of binding relative to H0L0-Fab [3]: 0.6
Kd [4]: 3.06 nM

B8: H5L2-Fab-HSA (Fab)
heavy: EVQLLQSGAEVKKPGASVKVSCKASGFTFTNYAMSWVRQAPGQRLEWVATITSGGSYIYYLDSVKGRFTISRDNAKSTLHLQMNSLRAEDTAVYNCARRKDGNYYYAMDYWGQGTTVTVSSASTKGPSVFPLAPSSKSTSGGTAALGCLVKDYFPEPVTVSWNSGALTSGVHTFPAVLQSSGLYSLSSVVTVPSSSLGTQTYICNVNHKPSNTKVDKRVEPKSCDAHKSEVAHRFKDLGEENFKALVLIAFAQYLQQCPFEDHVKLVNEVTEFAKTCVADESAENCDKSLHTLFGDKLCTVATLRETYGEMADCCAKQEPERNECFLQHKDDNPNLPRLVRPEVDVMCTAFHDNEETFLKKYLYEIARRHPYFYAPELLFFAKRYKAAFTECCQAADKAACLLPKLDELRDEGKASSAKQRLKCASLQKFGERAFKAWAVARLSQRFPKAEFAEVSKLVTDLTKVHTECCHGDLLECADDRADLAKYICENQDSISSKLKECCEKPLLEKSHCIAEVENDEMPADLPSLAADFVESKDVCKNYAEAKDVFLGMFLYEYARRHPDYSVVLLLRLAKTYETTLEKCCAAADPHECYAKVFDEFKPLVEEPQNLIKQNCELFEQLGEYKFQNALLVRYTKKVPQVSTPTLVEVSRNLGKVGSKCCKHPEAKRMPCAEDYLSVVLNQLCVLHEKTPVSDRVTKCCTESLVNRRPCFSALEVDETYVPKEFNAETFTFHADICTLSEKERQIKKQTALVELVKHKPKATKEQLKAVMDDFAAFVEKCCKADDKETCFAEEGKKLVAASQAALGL
light: B7 light
notes: also called AB13351-C1
Ratio of binding relative to H0L0-Fab [3]: 1.4
Kd [4]: 7.52 nM

B9: human TL1A (ligand, UniProt O95150 72-251, looked up)
chain: LKGQEFAPSHQQVYAPLRADGDKPRAHLTVVRQTPTQHFKNQFPALHWEHELGLAFTKNRMNYTNKFLLIPESGDYFIYSQVTFRGMTSECSEIRQAGRPNKPDSITVVITKVTDSYPEPTQLLMGTKSVCEVGSNWFQPIYLGAMFSLQEGDKLMVNVSDISLVDYTKEDKTFFGAFLL
notes: also called hTL1A; TNFSF15
binding result [5]: binds

B10: H0L0-Fab (Fab, V domains shown)
VH: EVMLVESGGGLVKPGGSLKLSCAASGFTFTNYAMSWVRQTPEKRLEWVATITSGGSYIYYLDSVKGRFTISRDNAKSTLYLQMSSLRSEDTAIYNCARRKDGNYYYAMDYWGQGTSVTVSS
VL: DIVLTQSPASLAVSLGQRATISCRASESVDSYGNSFIHWYQQKAGQPPKLLIYRASNLESGIPARFSGSGSRTDFTLTINPVEADDVATYYCQQSYEDPWTFGGGTKLEIKR
notes: also called 11H08-Fab; parental anti-DR3 molecule
Ratio of binding relative to H0L0-Fab [1]: 1
Kd [2]: 1.37 nM

Second part, the binder after the results:

Ratio of binding relative to H0L0-Fab [1]: 1.22
Kd [2]: 1.67 nM
B2: H5.3L2-Fab (Fab, V domains shown)
VH: B1 VH with Q1E, Q3M, V5L, S9A, L11V, K43Q, E73D, Y80H, T88A, L93V
VL: B1 VL

Ratio of binding relative to H0L0-Fab [1]: 0.94
Kd [2]: 1.29 nM
B3: H1.1L4-Fab (Fab, V domains shown)
VH: B4 VH
VL: DIVLTQTPLSLSVTPGQPASISCRASESVDSYGNSFIHWYQQKPGQPPKLLIYRASNLESGIPARFSGSGSRTDFTLKISRVEAEDVGVYYCQQSYEDPWTFGGGTKLEIKR

Ratio of binding relative to H0L0-Fab [1]: 1.28
Kd [2]: 1.76 nM
B5: H5.3L4-Fab (Fab, V domains shown)
VH: B1 VH with Q1E, Q3M, V5L, S9A, L11V, K43Q, E73D, Y80H, T88A, L93V
VL: B3 VL

Ratio of binding relative to H0L0-Fab [1]: 0.85
Kd [2]: 1.17 nM
B6: H1.1L2-Fab (Fab, V domains shown)
VH: B4 VH
VL: B1 VL

Ratio of binding relative to H0L0-Fab [1]: 1.09
Kd [2]: 1.5 nM
B11: H0.1L0-Fab (Fab, V domains shown)
VH: B10 VH with N95Y
VL: B10 VL
